Consider 1 protein from PMC10613257, “Cryo-EM structure of human PAPP-A2 and mechanism of substrate recognition” (Communications Chemistry, 2023).

This data set deals with the molecule itself. The data set is described as follows: SEC; Superose 6 Increase 10/300 in 1X PBS.

B1: Pregnancy-Associated Plasma Protein A (PAPP-A), wild type (enzyme, UniProt Q13219 82-1627, looked up)
chain: EARGATEEPSPPSRALYFSGRGEQLRLRADLELPRDAFTLQVWLRAEGGQRSPAVITGLYDKCSYISRDRGWVVGIHTISDQDNKDPRYFFSLKTDRARQVTTINAHRSYLPGQWVYLAATYDGQFMKLYVNGAQVATSGEQVGGIFSPLTQKCKVLMLGGSALNHNYRGYIEHFSLWKVARTQREILSDMETHGAHTALPQLLLQENWDNVKHAWSPMKDGSSPKVEFSNAHGFLLDTSLEPPLCGQTLCDNTEVIASYNQLSSFRQPKVVRYRVVNLYEDDHKNPTVTREQVDFQHHQLAEAFKQYNISWELDVLEVSNSSLRRRLILANCDISKIGDENCDPECNHTLTGHDGGDCRHLRHPAFVKKQHNGVCDMDCNYERFNFDGGECCDPEITNVTQTCFDPDSPHRAYLDVNELKNILKLDGSTHLNIFFAKSSEEELAGVATWPWDKEALMHLGGIVLNPSFYGMPGHTHTMIHEIGHSLGLYHVFRGISEIQSCSDPCMETEPSFETGDLCNDTNPAPKHKSCGDPGPGNDTCGFHSFFNTPYNNFMSYADDDCTDSFTPNQVARMHCYLDLVYQGWQPSRKPAPVALAPQVLGHTTDSVTLEWFPPIDGHFFERELGSACHLCLEGRILVQYASNASSPMPCSPSGHWSPREAEGHPDVEQPCKSSVRTWSPNSAVNPHTVPPACPEPQGCYLELEFLYPLVPESLTIWVTFVSTDWDSSGAVNDIKLLAVSGKNISLGPQNVFCDVPLTIRLWDVGEEVYGIQIYTLDEHLEIDAAMLTSTADTPLCLQCKPLKYKVVRDPPLQMDVASILHLNRKFVDMDLNLGSVYQYWVITISGTEESEPSPAVTYIHGSGYCGDGIIQKDQGEQCDDMNKINGDGCSLFCRQEVSFNCIDEPSRCYFHDGDGVCEEFEQKTSIKDCGVYTPQGFLDQWASNASVSHQDQQCPGWVIIGQPAASQVCRTKVIDLSEGISQHAWYPCTISYPYSQLAQTTFWLRAYFSQPMVAAAVIVHLVTDGTYYGDQKQETISVQLLDTKDQSHDLGLHVLSCRNNPLIIPVVHDLSQPFYHSQAVRVSFSSPLVAISGVALRSFDNFDPVTLSSCQRGETYSPAEQSCVHFACEKTDCPELAVENASLNCSSSDRYHGAQCTVSCRTGYVLQIRRDDELIKSQTGPSVTVTCTEGKWNKQVACEPVDCSIPDHHQVYAASFSCPEGTTFGSQCSFQCRHPAQLKGNNSLLTCMEDGLWSFPEALCELMCLAPPPVPNADLQTARCRENKHKVGSFCKYKCKPGYHVPGSSRKSKKRAFKTQCTQDGSWQEGACVPVTCDPPPPKFHGLYQCTNGFQFNSECRIKCEDSDASQGLGSNVIHCRKDGTWNGSFHVCQEMQGQCSVPNELNSNLKLQCPDGYAIGSECATSCLDHNSESIILPMNVTVRDIPHWLNPTRVERVVCTAGLKWYPHPALIHCVKGCEPFMGDNYCDAINNRAFCNYDGGDCCTSTVKTKKVTPFPMSCDLQGDCACRDPQAQEHSRKDLRGYSHG
notes: PAPP-A, mature form of 1547 amino acids after processing of the pro-peptide. numbers count on: the mature protein; also called FL PAPP-A; dimeric PAPP-A; source: Expi293F, secreted into the culture medium, purified (anti-FLAG, Superose 6 SEC)
As to B1, the “stoichiometry N” value was found to be 2.
